Test: soluble fraction after stress (log2 fold change); higher = more stays soluble; pooled small domains, quantitative proteomics
Settings: stress: 75 degC
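Also: 20 min heating vs room temperature control held 20 min.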

| Sequence | soluble fraction (log2) |
| --- | --- |
| HMDFKKKIIESWADIAETLRGLTVDSNISDWTTKQKNAYETLADKAELAGLSIADLNSILVELGYM | -0.119 |
| HMFFMTMGEKIQLLRKKQNWSQETLAEKLSVSRQAVSLWERDESQPELDKLLKLAKIFSVTTDYLIDDSVT | -3.19 |
| HMAMDSGELEAIVDRLISEHPDDWAALTAGDDRERKKKSGFFVGEVMKATRGQADGRAVIELLASRSA | -0.0771 |
| HMNRPYVELFSGLGQEEAQQIVQKLQEDEVDYKFSGDSTILVKEDVVDQTKATLVQEGYPKS | 0.153 |
| HMKPQIRRHEKITALVREHGFMSVEQLARELEVTPQTIRRDIGILSAENVLRRYHGGAALGD | -0.941 |
| HMKTTKLEELDMQKEFILKNGKYGFGVYIGGKYIGLTDIGTVNSFKDSLQLPVVSLSDIDFKTFAEKF | -1.27 |
| HMEISLAETLRSSLHMILGWYQNTGDKKLLELIRLHLQAYVNTGNSLNPEMEEIRAALETLGEGKEAFRP | -2.35 |
| HMEVFGDTKEEQMIIDILKLGITDLEHLQAKSMLEPAIFSQTLTMLEISGKIRPLGAGHWTL | -2.87 |
| HMTVLSKEEFVAIEQRLLQLLGTAPVDNKILLQQLSGIKKEKAWKVLSFLQAENKIGMDATGRVYL | -0.974 |
| HMTNIELYQRLLNLGFTPAQAKILLVQYDETRLTDNLNYVDFKKQQGNIENLPAYTTTIIKKDVRL | -1.14 |
| HMEDIASESVKRVIRKIIDDEDKKSPLSDQAIVEILAKGEGIVIARRTVAKYREMMGILPSSKRKKH | -1.4 |
| HMQTEFVISSGEQPKRLDVFLLQREPYLSRAALQRMIAAGWVRVNNHLAKSSQRIKAGDVIVFD | -1.42 |
| HMETYPINVETTGTNVLLRTGPSTSSNIIKTITDKGTVFLSIERGINSDWQKVVTPDGTIGYMSGKY | 0.00405 |
| HMSAQDLIVKTDATQVEARVLEISPEQIRYKRFSNPDGPTYVLPVDAVDYIRYANGETDSFR | 0.076 |
| HMRNKTVKEVLDYIEKNSEFIFFYYSKAIDTKRIVSLSVKDQPITVILDQLFKNTDVLYEIKDRQISLKRE | 0.1 |
| HMTPKVTVPDVTGQTFSSAKQILESLGFTVKQQGSTDETDQVIDQNPTSGEADKGATITLTTKSS | 0.0908 |
| HMAKSETAKIKATPYGWLRVRDTPSLNGAEIARVNSGDEYKVLEKETGWIKIKVSDTVEGWVSDAYIELS | -0.21 |
| HMSKPTLTLKSNAYPYNLNGERINNYLGFTYIKKGATLNYQGSKRINGQNYYYIGDGAYIKNTTVGSTNN | -1.23 |
| HMNLNESVELGQELLSQALAQLGIRGELSPSTIDKLLAESSAKSMEELYADIGIGKRMPALVARHIFGLMD | -0.627 |
| HMADKNIIGVLSAADNLGKVRITTANGEKYIITVPDGLSDIVKTYWEEEVSVKYVIEKRRKILVDIDG | -2.04 |
| HMQVFDSNEIDEVVKKVIENNPQAVADFKKGKSNALQFLAGQVMRETKGRFNPNVVQERIRLLLT | 0.671 |
| HMDTNVPVPNVNGMTLNQAKAALEAAGFHVAVNWLGEKSDNNSVISYEPNGSAAKGTTITITVIAQPEQDG | 0.0988 |
| HMTMGAAEAQALKDEALELYRTGGTQEDVVRAIEMYEQAAEAGNAQAASDLAYLKANGVYETAMNN | 0.263 |
| HMTTTYTVPKVTGMTLEEAREDPDVVGRFTIVEGEKVTSDTVPVGQIVSQEPAAHRQVGEDGLTITVNIS | 0.634 |
| HMIPSLTITVNEHSRQITRGTSLYTLRDALYPDADVLVVNGHPADSDRHLEEGDAVVLIRRGA | -0.456 |
| HMSLSKQETEFLTTFSASGKRVFTYQQATDYWQSKVAATNVLGRLVRKGWLQRLERGLYMIIPLEAGPERF | -1.71 |
| HMYRIGELAKLADVTPDTIRYYEKQQMMDHDVRTEGGFRLYSDNDLQRLKFIRYARQLGFTLEAIRELLSI | -2.27 |
| HMVDQAFQTQLKNIQARTGKNLDELYAFIRASGLVKHGEIRDLAKRELSLGHGDANTLAKFYLESLAAAA | 0.0377 |

| Sequence | soluble fraction (log2) |
| --- | --- |
| HMEPQLVKSFDVQTELTYDQFLSKYPESHTLGRLLVQPEPIPFEPYKNIPGITPEKLLALHAKHLEAR | 0.107 |
| HMNTPALRQRTQDVPALLIHFAKYFATKGQTPISFAPDFLEALKDYPWPGNVRELRNLVESMVV | -0.133 |
| HMETAVMPDVMKLDSTTAIQALKDKGFATIETYEVKSDRPAGVVVRQSETADSVVALSKEILLGVSNGADY | ≥ 1.04 |
| HMARDPWDVLGVAKTATNDEIKRAFKRQAMMTHPDKQGGSEERFKEVNEAYSHIKDEQSRAKYQNSQ | 0.158 |
| HMNHAPSLMRKIRRGLKEGRNPDDLLVNAKSISDYYYRSLSFYLLAPHFSSKSKQYKQVISLANS | -0.064 |
| HMQLHDTMKRVYEALDISEQKLAESLGLKLSTIINWQKNGISKIGINKLNQTFGLDMQWILTGQGEPFI | -0.0293 |
| HMTTTYEINDEMLKPLILEIFNKSKQRFGSTKIAPVLKREGYTASIAKVKTLMNELGIKPVNA | -1.07 |
| HMNNSDIDITVGKNSISINNPNRTNIIIYSSNGMLIDSSKNASYKRNLPSGIYIVKSGSSTHKVIV | -0.905 |
| HMNDQLIYSDFIRQVQDGQITEVTISGLNIAGTRSDGSVFNTLRPYIEDPKLIDDLLSHNVRIQGAE | 0.168 |
| HMEWLENIKKLKKEKGLTNESLSEKSGISVGTLNKLLSGATTDPKLSTLRPLADALEVSLDELLAI | -0.0723 |
| HMFRSTLEELKHQISGFLKANQSQEFTAQNLADGLRMTSIAEYKRVVNAMDALVRDGELTFDAGKYQYNPN | -0.234 |
| HMDTYDSIDSILEERHLSRRKLAQAIGLPPSTFQSMMSRKSGMTLEVLMKIVSYLQVSPDAFW | -3.17 |
| HMDTFSVAIGTKTPDGSSVGEVKTISRDELLLLEDEVAEDPTKEIIFTGGTKDSAQAALDGWIDYNTNLAS | 0.0395 |
| HMSTPLPTGLPRGTIIEYTVQTDETLAIIAAKFNSTVDDIMTRNKITDPNTIYAGQILKVAINLVTP | -1.62 |
| HMNQSYQLWIKDDELGPTPRSVGVLNEHFEVDPAALTNYDAELLRRATFGISLEPRGGSPTGQP | -0.192 |
| HMGKAMIDWEREQSILRILLRQKALTTEQAREVYQDGMREDLSALEMGVQRGYFTHEQLREATGGE | -0.278 |
| HMSDTSELESIIAQIIEDNPKSIEDIGAGNQKAYGFLTGQVMKATKGQANPQVANKIIRELVARKLE | ≥ 1.04 |
| HMTKASYKITTPSGVNVREGAGKRYAVRKAYPKGKTVTVTQTKEVNGNLWGKTSDGWFAIKYQGAVYASA | -1.39 |
| HMSDGYETLVNMAKPFLNNSKQITENDITDAVNTVSVMLKKRYDMTDEDIRKAVSELLHFYA | -0.305 |
| HMPIEQVEVPNLTNMTREEAESTLTSLNLKAQVHEEANEADEGKVFKQGTNTGEMVDEGSTIEIWVS | -0.549 |
| HMKQMNETQQKAFEIYLDSATFETDYKPISEEQLAAKLDALGLKGSSSSINRWKKDFNWAQALQNKVTLAM | -0.166 |
| HMYELDIYPNPAIDKINVLLPSSTTLPVKVEIYDIMGKKVNSLLTTKKAFTIETDQFEKGIYFVKA | 0.331 |
| HMDKENVLQLQKDLLRLSVNALEKRYYQFSDILLLKYILPLVPKEISIDDQSRLRSLLSGIN | -0.538 |
| HMPASTSIPYSDFISRVESGDVQEAKIGESAITGTYKDGSQFKTVKPPTLDTNLMPTLIQNKVNVVGVEP | 0.176 |
| HMNKTVKIPNVSNLSREDAESVLKENGISVNSEVKQIESDTIEKGKVVKTDPSIGTSVKKGRSITIYVSSG | 0.544 |
| HMEKALEVKYQKMVELLGDQSTFYVDEVKKIFPEMKKSSLYWNMSKLVEGGYLRRIRNGVYAFNE | -0.401 |
| HMPHITDAEWEVMRVVWANHHVTSKEVISILEDKMNWKATTIKTLLGRLVEKGALSTEQDGKKFIYTAR | -1.6 |

Reference: the domain aggregation screens of Martell et al. (2025)
